Consider 36 sequences from the supplement of paper PMC10567573.

± gives the standard deviation.

This data set is described as follows: protein stability index of a GFP-peptide fusion (GPS, HEK-293T) (PSI 1-6); higher = more stable. The settings on record: c terminus: a fixed tail appended.
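Also: 24-mer peptide tiles fused after GFP, lentivirally expressed, FACS-sorted into six equal bins by GFP/DsRed ratio, decoded by Illumina sequencing, PSI is the read-weighted mean bin number.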

In the case of IFLGFSSLARLQQLLFVIFLLLYL [OR10K2], the protein stability index worked out at 2.65 ± 0.58 (treatment: DMSO) and 2.31 ± 0.52 (treatment: MLN4924 1 uM, 8 h).

As for ATVWSSNVGRVHRVAKKLQSGLVW [ALDH8A1], the protein stability index turned out to be 2.81 ± 0.87 (treatment: DMSO) and 2.24 ± 0.96 (treatment: MLN4924 1 uM, 8 h).

TNGELNTDDPTAGRSNAPITAPTE [CSNK1G3] had a protein stability index (treatment: DMSO) of 5.41 ± 0.15 and a protein stability index (treatment: MLN4924 1 uM, 8 h) of 5.41 ± 0.16.

PHDFIEHFLSKMPEAEENKQIIRK [CCND1] gave a protein stability index (treatment: DMSO) of 3.96 ± 0.21 and a protein stability index (treatment: MLN4924 1 uM, 8 h) of 4.27 ± 0.22.

With VDLVQKYLEKYYNLKNDGRQVEKR [MMP1], the protein stability index runs as follows: (treatment: DMSO) 2.42 ± 0.25; (treatment: MLN4924 1 uM, 8 h) 2.68 ± 0.36.

For the sequence DHMRKKQHRKINPKNREYDRFYVI [ZNF277], the protein stability index is, setting by setting: (treatment: DMSO) 2.21 ± 0.29; (treatment: MLN4924 1 uM, 8 h) 2.03 ± 0.28.

DKEGPSPKVEYVWRNIILMSLLHL [SCD] gave a protein stability index (treatment: DMSO) of 3.11 ± 0.69 and a protein stability index (treatment: MLN4924 1 uM, 8 h) of 3.12 ± 0.4.

As for GTPGYLSPEVLRKDPYGKPVDLWA [CAMK2A], the protein stability index by setting is: (treatment: DMSO) 3.29 ± 0.39; (treatment: MLN4924 1 uM, 8 h) 3.16 ± 0.29.

As for NAQIPELKSDLEKASALNTKIRAL [CD207], the protein stability index (treatment: DMSO) was determined as 4.016 ± 0.023 and the protein stability index (treatment: MLN4924 1 uM, 8 h) amounted to 3.86 ± 0.48.

Turning to PSGFKHVSHVGWDPQNGFDVNNLD [WAS], the protein stability index worked out at 3.83 ± 0.24 (treatment: DMSO) and 3.79 ± 0.58 (treatment: MLN4924 1 uM, 8 h).

Turning to VASFKFDAGEVSYLPRDFSTYRPL [MYORG], the protein stability index stood at 2.28 ± 0.37 (treatment: DMSO) and 2.54 ± 0.17 (treatment: MLN4924 1 uM, 8 h).

Take EYVHSKNLIYRDVKPENFLIGRPG [CSNK1G3]: the protein stability index (treatment: DMSO) worked out at 2.79 ± 0.32 and the protein stability index (treatment: MLN4924 1 uM, 8 h) stood at 2.78 ± 0.32.

KELEKRREESQHEIKDVLVWTNDQ [PPFIA4]: the protein stability index by setting is: (treatment: DMSO) 5.27 ± 0.17; (treatment: MLN4924 1 uM, 8 h) 5.25 ± 0.21.

For the sequence SRRSGKTSAVLKAGRQSVSGRKNS [C6orf223], the protein stability index was determined as 4.64 ± 0.28 (treatment: DMSO) and 4.78 ± 0.25 (treatment: MLN4924 1 uM, 8 h).

With HVKIVKLLLAHKADVNAQSSTGNT [ANKRD17], the protein stability index runs as follows: (treatment: DMSO) 2.32 ± 0.26; (treatment: MLN4924 1 uM, 8 h) 2.36 ± 0.22.

Consider FSFKVSRWMGLACFRSLAASSPSI [CCDC70], for which the protein stability index is, setting by setting: (treatment: DMSO) 2.2 ± 0.34; (treatment: MLN4924 1 uM, 8 h) 2.63 ± 0.53.

On to ADPDEMRMQALLIRERILGPSHPD [FEM1C], for which the protein stability index (treatment: DMSO) was found to be 3.94 ± 0.33 and the protein stability index (treatment: MLN4924 1 uM, 8 h) came to 3.94 ± 0.13.

For the sequence PPMGKAFQELAGKELCAMSEEQFR [SPDEF], the protein stability index came to 4.3 ± 0.25 (treatment: DMSO) and 4.4 ± 0.34 (treatment: MLN4924 1 uM, 8 h).

SHDPQSSRGSRRRRRQRSEKKKAH [KCNA4]: the protein stability index reads like this: (treatment: DMSO) 5.38 ± 0.53; (treatment: MLN4924 1 uM, 8 h) 5.38 ± 0.23.

For FASGGFQVKLYDIEQQQIRNALEN [CRYL1], the protein stability index by setting is: (treatment: DMSO) 2.56 ± 0.28; (treatment: MLN4924 1 uM, 8 h) 2.95 ± 0.83.

As to MRGFKGDRGPKGEKGEKGDRAGDA [SCARA5], the protein stability index reads like this: (treatment: DMSO) 5.41 ± 0.25; (treatment: MLN4924 1 uM, 8 h) 5.44 ± 0.44.

For KPQDSSQPSDRLMTEKQQEEAEWE [CEP70], the protein stability index runs as follows: (treatment: DMSO) 5.59 ± 0.4; (treatment: MLN4924 1 uM, 8 h) 5.45 ± 0.46.

Take PAMSPYWRTWMTITQSWQVSVRVQ [C22orf15]: the protein stability index runs as follows: (treatment: DMSO) 2.51 ± 0.41; (treatment: MLN4924 1 uM, 8 h) 2.74 ± 0.3.

As to IVKAMASPESGLEVRDRMLLKITI [DVL3], the protein stability index runs as follows: (treatment: DMSO) 3.12 ± 0.44; (treatment: MLN4924 1 uM, 8 h) 2.9 ± 0.55.

For the sequence MTGRAMDPLPAAAVGAAAEAEADE [SNX8], the protein stability index runs as follows: (treatment: DMSO) 5.52 ± 0.3; (treatment: MLN4924 1 uM, 8 h) 5.78 ± 0.12.

On to AHFYGVKLEGKVPMHKLFLEMLEA [ESRRA], for which the protein stability index (treatment: DMSO) is 2.46 ± 0.51 and the protein stability index (treatment: MLN4924 1 uM, 8 h) worked out at 2.12 ± 0.034.

In the case of LGLSLTNGLALGPDLNILEDSAES [PSD2], the protein stability index is 4.56 ± 0.15 (treatment: DMSO) and 4.78 ± 0.31 (treatment: MLN4924 1 uM, 8 h).

In turn, EELDGLCFKGELPLRAVHINLEEK [PLEKHN1] yielded a protein stability index (treatment: DMSO) of 4.41 ± 0.26 and a protein stability index (treatment: MLN4924 1 uM, 8 h) of 4.44 ± 0.29.

With TDHILESLYRDIRDIQDENQLLVA [STX11], the protein stability index runs as follows: (treatment: DMSO) 3.22 ± 0.3; (treatment: MLN4924 1 uM, 8 h) 3.24 ± 0.39.

For the sequence WLLTKIDHWNNEKERILLVTDKTL [TPRG1], the protein stability index is 2.11 ± 0.41 (treatment: DMSO) and 2.16 ± 0.28 (treatment: MLN4924 1 uM, 8 h).

On to SKYGIINLQSLKTPTLKVFMHENL [DCAF4], for which the protein stability index was found to be 1.8 ± 0.43 (treatment: DMSO) and 2.03 ± 0.26 (treatment: MLN4924 1 uM, 8 h).

With KWMERYLRDKTVMIIVAISPKYKQ [TRAF3IP2], the protein stability index is, setting by setting: (treatment: DMSO) 2.65 ± 0.97; (treatment: MLN4924 1 uM, 8 h) 2.44 ± 0.34.

As for FPSDHLGDLGDPFHLGLEDILMEE [TFE3], the protein stability index by setting is: (treatment: DMSO) 3.82 ± 0.19; (treatment: MLN4924 1 uM, 8 h) 4.04 ± 0.4.

In the case of TPGSRIESILMSLPLTARWEYMHS [CPOX], the protein stability index is 2.33 ± 0.27 (treatment: DMSO) and 2.24 ± 0.12 (treatment: MLN4924 1 uM, 8 h).

As to AFAPDFKELDENVEYEERESEFDI [RBBP5], the protein stability index is 5.38 ± 0.15 (treatment: DMSO) and 5.16 ± 0.41 (treatment: MLN4924 1 uM, 8 h).

Turning to WFLSKTEELNKEVASNSELVQSSR [KRT16], the protein stability index reads like this: (treatment: DMSO) 3.86 ± 0.39; (treatment: MLN4924 1 uM, 8 h) 3.96 ± 0.17.
